Reference: KR20220167207A (dated 2022)
Positions count from the first letter of the chain named. Where two headings read alike, the source gives them in different places. Where no end group is shown, it is not given here.

Experiments:
[1] = target: T1, BSA-conjugated human CADM1 peptide (human, also: conjugated to BSA via added C-terminal Cys); assay: ELISA, scFv titrated on coated BSA-conjugated human CADM1 peptide, anti-HA-HRP, OD450
T1 construct: also called human peptide; rhCADM1 peptide
T1 peptide: DSRAGEEGSIRAVDHC(BSA)

[2] = target: T2, BSA-conjugated mouse CADM1 peptide (mouse, also: conjugated to BSA via added C-terminal Cys); assay: ELISA, scFv titrated on coated BSA-conjugated mouse CADM1 peptide, anti-HA-HRP, OD450
T2 construct: also called mouse peptide
T2 peptide: DSRAGEEGTIGAVDHC(BSA)

[3] = target: T1, BSA-conjugated human CADM1 peptide; assay: ELISA, scFv titrated on coated BSA-conjugated human CADM1 peptide, anti-HA-HRP, OD450
[4] = target: T2, BSA-conjugated mouse CADM1 peptide; assay: ELISA, scFv titrated on coated BSA-conjugated mouse CADM1 peptide, anti-HA-HRP, OD450
[5] = target: T3, comparison structure: the same structure without the CADM1 peptide (Myc tag, hinge, transmembrane domain, …); assay: flow cytometry, 1 ug scFv on 5x10^5 cells with the structure without the CADM1 peptide, PE anti-HA
T3 construct: also called 비교군 구조; CADM1 펩타이드를 포함하지 않는 세포

[6] = target: T4, CADM1 peptide expressed on SBC-5 small cell lung cancer cells (CADM1-SBC-5); peptide - transmembrane domain - … (human); assay: flow cytometry, 1 ug scFv on 5x10^5 SBC-5 cells expressing the CADM1 peptide, PE anti-HA
T4 construct: also called CADM1 펩타이드를 발현하는 SBC-5 세포
T4 sequence (Q9BY67 whole entry, looked up): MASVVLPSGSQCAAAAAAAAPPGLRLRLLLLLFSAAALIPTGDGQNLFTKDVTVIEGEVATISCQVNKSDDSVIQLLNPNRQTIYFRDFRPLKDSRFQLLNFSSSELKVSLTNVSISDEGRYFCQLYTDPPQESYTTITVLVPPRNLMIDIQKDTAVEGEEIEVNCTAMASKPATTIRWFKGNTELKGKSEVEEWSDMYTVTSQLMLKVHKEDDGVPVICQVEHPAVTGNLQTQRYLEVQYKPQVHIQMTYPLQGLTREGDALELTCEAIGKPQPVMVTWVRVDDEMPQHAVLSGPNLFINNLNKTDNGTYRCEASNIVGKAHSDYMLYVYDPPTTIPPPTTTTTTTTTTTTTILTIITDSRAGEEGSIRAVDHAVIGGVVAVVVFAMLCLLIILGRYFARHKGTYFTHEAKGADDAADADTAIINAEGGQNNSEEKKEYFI

B1: 5RA5 (scFv, V domains shown)
VH: EVQLLESGGGLVQPGGSLRLSCAASGFTFSNYAMSWVRQAPGKGLEWVSWIYHGGGDTYYADSVKGRFTISRDNSKNTLYLQMNSLRAEDTAVYYCARAAVYCKRTNCYSYDAMDVWGQGTLVTVSS
VL: QSVLTQPPSASGTPGQRVTISCSGSSSNIGNNSVTWYQQLPGTAPKLLIYSNNNRPSGVPDRFSGSKSGTSASLAISGLRSEDEADYYCGAWDDSLNAYVFGGGTKLTAL
notes: Tested as purified scFv (one chain) with His tag and HA tag, from pComb3X in E. coli; human synthetic library
Q: Which results are given for B1?
A: Bmax [1]: 4.29; Kd [1]: 10.4 nM; Bmax [2]: 4.39; Kd [2]: 39.5 nM

B2: 5RA8 (scFv, V domains shown)
VH: EVQLLESGGGLVQPGGSLRLSCAASGFTFSSYGMSWVRQAPGKGLEWVSGISYSGGSTYYADSVKGRFTISRDNSKNTLYLQMNSLRAEDTAVYYCARPISRLGAYMWSSSYAMDVWGQGTLVTVSS
VL: B1 VL with N31S, S33Y, S51A, N53S, A91S, D94A, A98G, A109V
notes: Tested as purified scFv with His tag and HA tag; human synthetic library
Q: Which Bmax [1] does the source give for B2 here?
A: 4.12

Q: And the Kd [1]?
A: 1.9 nM

Q: And the Bmax [2]?
A: 4.11

Q: And the Kd [2]?
A: 2 nM

B3: 5RG9 (scFv, V domains shown)
VH: B2 VH with G50W, S57N, R102H, L103F
VL: B1 VL with N31S, S33Y, S51A, N53S, E84G, D94A, A98G, A109V
notes: as for B2
Q: B3 was tested. Which Bmax [1] did it give?
A: 3.52

Q: What about the Kd [1] of the same binder?
A: 8.05 nM

Q: What about the Bmax [2] of the same binder?
A: 3.64

Q: And the Kd [2]?
A: 6.97 nM

B4: 5RH12 (scFv, V domains shown)
VH: B1 VH with N84S, A100R, Y102H, K104Q, R105Q, T106R, N107R, Y109S
VL: B1 VL with N31S, T35S, S51A, N52D, N53S, N54H, N97S, A109V
notes: as for B2
Q: Which results are given for B4?
A: Bmax [1]: 5.07; Kd [1]: 271 nM; Bmax [2]: 6.13; Kd [2]: 666 nM

B5: 6RC7 (scFv, V domains shown)
VH: EVQLLESGGGLVQPGGSLRLSCAASGFTFSNYAMSWVRQAPGKGLEWVSGIYPNSGSNTYYADSVKGRFTISRDNSKNTLYLQMNSLRAEDTAVYYCARAIGPCLRYPCYSADAMDVWGQGTLVTVSS
VL: QSVLTQPPSASGTPGQRVTISCTGSSSNIGSNYVNWYQQLPGTAPKLLIYANSNPPSGVPDRFSGSKSGTSASLGISGLRSEDEADYYCGAWDDNLNAYVFVGGTKLTVL
notes: as for B2
Q: Which Bmax [1] does the source give for B5 here?
A: 4.19

Q: What about the Kd [1] of the same binder?
A: 4.23 nM

Q: What about the Bmax [2] of the same binder?
A: 4.19

Q: And the Kd [2]?
A: 4.8 nM

B6: 5RB6 (scFv, V domains shown)
VH: EVQLLESGGGLVQPGGSLRLSCAASGFTFSDYAMSWVRQAPGKGLEWVSWIYYDSGSKYYADSVKGRFTISRDNSKNTLYLQMDSLRAEDTAVYYCAKHGRNTKNWPWYSANGMDVWGQGTLVTVSS
VL: B1 VL with S23T, N31S, T35S, N52D, N53S, N54K, D94S, N97S, A109V
notes: Tested as purified scFv with His tag and HA tag; human synthetic library; also called 5RB6(H); 5RB6 # Human specific
Q: Which Bmax [1] does the source give for B6 here?
A: 4.25

Q: What about the Kd [1] of the same binder?
A: 11.9 nM

B7: 5RA7 (scFv, V domains shown)
VH: EVQLLESGGGLVQTGGSLRLSCAASGFTFSDYAMSWVRQAPGRGLEWVSAIYPGNSSIYYADSVKGRFTISRDNSKNTLYLQMNSLRAEDTAVYYCARVPVQCMLTRCYSYDAMDVWGQGTLVTVSS
VL: B1 VL with S23T, S51A, N52D, N53S, N54H, D94S, A109V
notes: as for B2
Q: Which Bmax [1] does the source give for B7 here?
A: 4.42

Q: And the Kd [1]?
A: 43.7 nM

Q: And the Bmax [2]?
A: 4.54

Q: What about the Kd [2] of the same binder?
A: 114 nM

B8: 4A2 (scFv, V domains shown)
VH: AVTLDESGGGLQTPGRALSLACKGSGFTFSSYAMNWVRQAPGKGLEFVAQITSSGRYTYYGTAVKGRATISRDNGQSTVRLQLNNLRAEDSGTYYCAKDAAAGYYDGATAGDIDAWGHGTEVIVSS
VL: LTQPSSVSANPGETVKITCSGGYNRYGWYQQKSPGSAPVTVIYSNNQRPSNIPSRFSGSKSGSTATLTITGVQAEDEAVYYCGSYDSSDGYAGIFGAGTTLTVL
notes: Tested as purified scFv with His tag and HA tag; chicken immune library
Q: What does the source list for B8?
A: Bmax [3]: 4.14; Kd [3]: 4.19 nM; Bmax [4]: 4.49; Kd [4]: 79.2 nM; 결합력 (%) [5]: 0.7%; 결합력 (%) [6]: 18.5%

B9: 4A8 (scFv, V domains shown)
VH: B8 VH with R16G, A17G, A21V, G24A
VL: LTQPSSVSANLGGTVKITCSGGSGSNHYGWYQQKSPGSAPVTVIYSNNKRPSNIPSRFSGSKFGSTATLTITGVQADDEAVYYCGGYDSSAGYIGPFGAGTTLTVL
notes: as for B8
Q: What does the source list for B9?
A: Bmax [3]: 4.22; Kd [3]: 16.4 nM; Bmax [4]: 4.43; Kd [4]: 70.2 nM; 결합력 (%) [5]: 0.9%; 결합력 (%) [6]: 10.1%

B10: 4C8 (scFv, V domains shown)
VH: AVTLDESGGGLQTPGRALSLVCKASGFSFSSYSMYWVRQAPGKGLEYVAEITSSGRYTYYGSAVKGRATISRDNGQSTVRLQLNNFRAEDTATYFCAKGSGTGYSDSGAGGEIDAWGHGTEVIVSS
VL: LTQPSSVSANPGETVKITCSGGSGSYYGWYQQKSPGSAPVTVIYQNKQRPSNIPSRFSGSKSGSTGTLTITGVQAEDEAVYFCGNYESSAGIFGAGTTLTVL
notes: as for B8
Q: How did the Bmax [3] turn out when B10 was run?
A: 4.47

Q: What about the Kd [3] of the same binder?
A: 66.5 nM

Q: What about the Bmax [4] of the same binder?
A: 2.06

Q: And the Kd [4]?
A: 476 nM

Q: What about the “결합력 (%)” value [6] of the same binder?
A: 2.3%

B11: 4H7 (scFv, V domains shown)
VH: AVTLDESGGGLQTPGGTLSLVCKASGFDFSSYEMAWVRQAPGKGLEYVAGIDNTGSATNYGAAVKGRATISRDNGQSTVRLQLNNLRAEDTATYFCAKDAYGYSGSDSWYAANPAYIDAWGHGTEVIVSS
VL: LTQPSSVSANPGETVKITCSGSSGSYGWYQQKSPGSAPVTVIYDNTNRPSDIPSRFSGSKSGSTGTLTITGVQAEDEAVYFCGSRDSSYVGIFGAGTTLTVL
notes: as for B8
Q: B11 was tested. Which Bmax [3] did it give?
A: 4.48

Q: What about the Kd [3] of the same binder?
A: 52.7 nM

Q: And the Bmax [4]?
A: 5.57

Q: What about the Kd [4] of the same binder?
A: 394 nM

Q: What about the “결합력 (%)” value [6] of the same binder?
A: 3.3%

B12: 3C5 (scFv, V domains shown)
VH: AVTLDESGGGLQTPGRALSLVCKGSGFTFSSVNMFWVRQAPGKGLEYVAGIRKDGGGPLYGAAVKGRATISRDNGQSTVRLQLNNLRAEDTGTYYCAKAAGSCWAGCTGFIDAWGHGTEVIVSS
VL: LTQPSSVSANPGETVKITCSGGYNYYGWYQQKAPGSAPVTLIYANTDRPSDIPSRFSGSKFGSTATLTITGVQAEDEAVYFCGSRDSSYVGVFGAGTTLTVL
notes: as for B8
Q: How did the Bmax [3] turn out when B12 was run?
A: 4.41

Q: And the Kd [3]?
A: 49.7 nM

Q: And the Bmax [4]?
A: 4.05

Q: And the Kd [4]?
A: 41.7 nM

Q: And the “결합력 (%)” value [6]?
A: 1.1%

B13: 3G10 (scFv, V domains shown)
VH: B12 VH with R16G, A17G
VL: LTQPSSVSANPGETVKITCSGSTGSYGWFQQKSPGSALVTLIYNGNNRPSDIPSRFSGSKSGSTGTLTITGVQADDEAVYFCGGRESRSNPGIFGAGTTLTVL
notes: as for B8
Q: How did the Bmax [3] turn out when B13 was run?
A: 1.91

Q: What about the Kd [3] of the same binder?
A: 2.77 nM

Q: And the Bmax [4]?
A: 1.62

Q: What about the Kd [4] of the same binder?
A: 0.926 nM

B14: 5A2 (scFv, V domains shown)
VH: B12 VH with R16G, A17T, T28D, Y95F
VL: B11 VL with S22G, G24S, S25Y, D44Y, T46D, N47K, G65A, F81Y, R85A
notes: as for B8
Q: How did the Bmax [3] turn out when B14 was run?
A: 4.38

Q: What about the Kd [3] of the same binder?
A: 47.9 nM

Q: What about the Bmax [4] of the same binder?
A: 4.32

Q: And the Kd [4]?
A: 59.2 nM

Q: What about the “결합력 (%)” value [6] of the same binder?
A: 1.2%

B15: 5A5 (scFv, V domains shown)
VH: B12 VH with R16G, A17G
VL: LTQPSSVSANLGGTVKITCSGSSGYGYGWYQQKSPGSAPVTVIYYNNKRPSDIPSRFSGSKSGSTATLTITGVQVEDEAVYYCGSADSSAGYVGIFGAGTTLTVL
notes: as for B8
Q: For B15, which Bmax [3] is on record?
A: 4.52

Q: What about the Kd [3] of the same binder?
A: 123 nM

Q: And the Bmax [4]?
A: 4.54

Q: What about the Kd [4] of the same binder?
A: 136 nM

B16: RB11 (scFv, V domains shown)
VH: B8 VH with R16G, A17G, A21V
VL: LTQPSSVSANPGGTVKITCSGGSGSYGWFQQKAPGSAPVTLIYANTNRPSDIPSRFSGSKSGSTATLTITGVQVEDEAVYYCGSTDSSYVSIFGAGTTLTVL
notes: as for B8
Q: Which results are given for B16?
A: Bmax [3]: 4.01; Kd [3]: 0.649 nM; Bmax [4]: 4; Kd [4]: 2.72 nM; 결합력 (%) [5]: 1.2%; 결합력 (%) [6]: 38.4%

B17: RH6 (scFv, V domains shown)
VH: B8 VH with R16G, A17G, A21V
VL: VTQPSSVSANPGESVKITCSGGSYSYGWYQQKSPGSAPVTVIYSNNQRPSNIPSRFSGSTSGSTSTLTITGVQADDEAVYFCGTFDSSTNAAFGAGTTLTVL
notes: as for B8
Q: Which results are given for B17?
A: Bmax [3]: 4.16; Kd [3]: 5.58 nM; Bmax [4]: 2.4; Kd [4]: 124 nM; 결합력 (%) [5]: 0.7%; 결합력 (%) [6]: 10%
